Source: US20130224191A1, “NOTUM PROTEIN MODULATORS AND METHODS OF USE” (priority 2010, published 2013)

How the values were obtained:
hNotum-Fc = target: T1, hNotum-Fc (Homo sapiens, UniProt Q6P988); experiment: Triton X114 partition assay, blocking of hNotum-Fc; assay type: biochemical; details: hNotum-Fc preincubated with antibody
T1 construct: IL-2 signal peptide (N); made in house; host or cells: CHO-S
From the text: If Notum directly acts upon Wnt3A to delipidate the protein, this cleavage should result in a change in the hydrophobicity of the protein, which can be measured by a change in its partitioning behavior between aqueous and detergent phases in a Triton X114 partition assay (Bordier, 1981, PMID: 6257680): lipidated Wnt3A will be found in the […], whereas delipidated Wnt3A should show up in the […] (Willert et al., 2003, PMID: 12717451). […] An equal volume of 4.5% Triton X114 was added to the mixture, the mixture incubated on ice for 5 minutes, then at 37° C. for five minutes, before separating the phases using centrifugation at 2000×g for five minutes at room temperature. Following separation each sample was adjusted to normalize the ionic strength and Triton X114 content before analyzing the aliquots by PAGE electrophoresis. After running the gel the protein bands were transferred to a membrane for immunoblotting using an anti-rhWnt3A antibody (Cell Signaling Technology). Bands were visualized using SuperSignal West Pico Chemiluminescent substrate (Thermo Fisher Scientific).
Lane 1 is a positive molecular weight marker for rhWnt3A while the presence or absence of reagents in each aliquot is noted above the respective lane (where a is the aqueous fraction and t is Triton X-114 fraction, and the sliding bar indicates the concentration of Notum modulator). […]

Notum = target: T2, Notum (Homo sapiens, UniProt Q6P988); experiment: Bio-layer interferometry on ForteBIO RED; assay type: binding; details: 250, 125 and 62.5 nM antigen
T2 sequence (Q6P988 20-496): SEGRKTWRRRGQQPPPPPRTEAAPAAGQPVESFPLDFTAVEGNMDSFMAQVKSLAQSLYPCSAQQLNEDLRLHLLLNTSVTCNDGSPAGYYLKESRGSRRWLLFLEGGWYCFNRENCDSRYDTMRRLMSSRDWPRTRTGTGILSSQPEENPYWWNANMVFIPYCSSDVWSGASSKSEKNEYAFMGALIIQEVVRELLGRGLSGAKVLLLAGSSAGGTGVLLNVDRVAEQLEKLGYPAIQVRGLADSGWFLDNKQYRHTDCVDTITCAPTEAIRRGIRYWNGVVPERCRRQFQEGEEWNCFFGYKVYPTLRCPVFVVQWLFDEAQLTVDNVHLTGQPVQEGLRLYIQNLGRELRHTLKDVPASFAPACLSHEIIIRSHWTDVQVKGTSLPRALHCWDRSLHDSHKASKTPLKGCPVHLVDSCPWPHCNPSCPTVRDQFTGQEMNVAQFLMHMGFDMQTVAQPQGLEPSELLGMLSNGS
Protocol: Three methods were used to characterize the affinity of humanized SC2.D2.2 relative to its analogous mAb with the murine variable region. First, binding signal was measured for a fixed amount of antibody probed against serial dilutions of antigen in an ELISA format. […] Second, the affinity of murine SC2.D2.2 was measured by Biacore using surface plasmon resonance (SPR) to provide the results set forth in FIG. 32A. Based on a concentration series of 12.5, 6.25, 3.125, 1.5625, 0.78125 nM and using a 1:1 Langmuir binding model, the Kd of the antibody binding to antigen was estimated to be less than 0.1 nM. Long off-rates for this interaction made accurate determination of affinity through kinetics difficult. The murine antibody was then directly compared to the humanized derivative using bio-layer interferometry analysis on a ForteBIO RED (ForteBIO, Inc.) with a concentration series of 250, 125, and 62.5 nM antigen.

[1] = test system: Wnt3A-mediated induction of luciferase in the 293.TCF cells; experiment: Wnt3A canonical signaling assay, bioactivity of Notum constructs; assay type: cell-based, human; details: without added Notum
How it was run: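 293.TCF cells (HEK 293T stably carrying a TCF-driven GFP/luciferase reporter), 2.5×10^4 per well, serum-starved 23 h, then given Notum proteins 1 h before Wnt3A or control L-cell conditioned medium.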

T1 sequence (Q6P988 with tags, fused parts or gaps): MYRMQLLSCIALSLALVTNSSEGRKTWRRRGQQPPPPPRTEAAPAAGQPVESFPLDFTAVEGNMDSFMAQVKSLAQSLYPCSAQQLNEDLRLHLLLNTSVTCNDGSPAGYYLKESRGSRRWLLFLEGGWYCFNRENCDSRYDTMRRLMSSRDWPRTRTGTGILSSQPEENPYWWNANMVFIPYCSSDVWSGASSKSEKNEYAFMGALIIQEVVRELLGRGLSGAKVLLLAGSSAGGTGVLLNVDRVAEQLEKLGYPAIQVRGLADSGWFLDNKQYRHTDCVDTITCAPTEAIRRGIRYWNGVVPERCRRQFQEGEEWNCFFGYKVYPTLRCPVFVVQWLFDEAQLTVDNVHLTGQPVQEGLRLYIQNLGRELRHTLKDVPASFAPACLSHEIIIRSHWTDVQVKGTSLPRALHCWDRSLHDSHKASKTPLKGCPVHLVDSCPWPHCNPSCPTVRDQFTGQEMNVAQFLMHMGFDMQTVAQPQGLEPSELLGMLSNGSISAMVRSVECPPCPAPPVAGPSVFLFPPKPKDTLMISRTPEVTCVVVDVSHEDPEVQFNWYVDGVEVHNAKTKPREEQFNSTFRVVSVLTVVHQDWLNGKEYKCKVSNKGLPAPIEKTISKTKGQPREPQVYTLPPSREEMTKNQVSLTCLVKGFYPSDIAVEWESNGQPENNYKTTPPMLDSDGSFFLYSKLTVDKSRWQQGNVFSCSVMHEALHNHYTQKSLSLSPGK

B1: SC2.D2.2 (antibody, V domains shown)
VH: DVQLVESGGGLVQPGGSRKISCAASGFTFSSYGMHWVRQAPEKGLEWVAYISSSTVTTYYADTVKGRFTISRDNANNTLFLQMTSLRSEDTAMYYCSRQNWDGGYFDVWGAGTTVTVSS
VL: DIVLTQSLASLAVSLGQRATISCRASKSVSSSGYSYMHWYQQKPGQPPKLLIYLASNLESGVPARFSGSGSGTDFTLNIHPVEEEDAATYYCQHSRALPLTFGAGTKLELKR
notes: also called murine SC2.D2.2
blocking of Notum induced redistribution of rhWnt3A (hNotum-Fc): can be blocked
affinity, binding curves (Notum): excellent affinity
effect of antibody alone on induction of luciferase due to Wnt3A CM [1]: does not inhibit the induction of luciferase due to Wnt3A CM
